# Reference: patent US20240317847A1 (Bayer, published 2024)
# Positions count from the first letter of the chain named.
# T1: human IL2Ra (human, UniProt P01589 22-240, limits assumed)
# T1 construct: coated on the ELISA plate; also called IL-2 receptor alpha
# T1 sequence (looked up): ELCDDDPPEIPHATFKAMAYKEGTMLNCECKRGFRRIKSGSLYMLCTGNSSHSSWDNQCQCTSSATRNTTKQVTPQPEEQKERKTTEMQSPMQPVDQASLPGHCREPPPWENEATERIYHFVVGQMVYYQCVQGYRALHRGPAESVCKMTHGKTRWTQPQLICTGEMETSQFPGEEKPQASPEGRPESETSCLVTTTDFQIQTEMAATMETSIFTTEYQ
# T2: human IL-11 (human, UniProt P20809 22-199)
# T2 construct: Invigate recombinant protein; biotinylated when immobilized in the Di-complex ELISA; also called hIL11; hIL-11
# T2 sequence: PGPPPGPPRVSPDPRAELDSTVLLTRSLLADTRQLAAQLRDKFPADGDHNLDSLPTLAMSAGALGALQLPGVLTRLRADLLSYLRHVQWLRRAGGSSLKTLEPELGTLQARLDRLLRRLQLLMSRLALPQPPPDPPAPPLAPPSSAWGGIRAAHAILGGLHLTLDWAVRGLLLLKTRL
# T3: murine IL-11 (mouse, UniProt P47873 22-199)
# T3 construct: Invigate recombinant protein; biotinylated when immobilized in the Di-complex ELISA; also called mIL11; mIL-11
# T3 sequence: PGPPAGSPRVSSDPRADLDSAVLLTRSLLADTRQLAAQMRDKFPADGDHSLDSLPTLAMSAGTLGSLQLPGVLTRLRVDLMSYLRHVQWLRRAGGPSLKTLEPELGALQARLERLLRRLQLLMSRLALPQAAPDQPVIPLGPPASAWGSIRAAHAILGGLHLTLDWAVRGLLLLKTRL
# T4: rat IL-11 (rat, UniProt Q99MF5 22-199)
# T4 construct: Invigate recombinant protein; also called rIL11
# T4 sequence: T3 sequence with S50N, L84F, G94A, V137A, I138V
# T5: cynomolgus IL-11 (cynomolgus, UniProt P20808 22-199)
# T5 construct: Invigate recombinant protein; also called cIL11; Macaca IL-11
# T5 sequence: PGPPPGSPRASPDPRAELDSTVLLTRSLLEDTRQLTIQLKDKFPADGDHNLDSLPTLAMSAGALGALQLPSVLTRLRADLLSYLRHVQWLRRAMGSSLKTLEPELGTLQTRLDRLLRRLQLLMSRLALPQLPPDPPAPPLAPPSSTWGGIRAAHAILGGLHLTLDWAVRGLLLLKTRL
# T6: human IL-11 (human, UniProt P20809 22-199)
# T6 construct: Invigate, e.g. lot #C121021-19; biotinylated where coated in the ELISA; also called hIL-11; hIL11
# T6 sequence: T2 sequence
# T7: murine IL-11 (mouse, UniProt P47873 22-199)
# T7 construct: Invigate, e.g. lot #C210819-09; biotinylated where coated in the ELISA; also called mIL-11; mIL11
# T7 sequence: T3 sequence
# T8: rat IL-11 (rat, UniProt Q99MF5 22-199)
# T8 sequence: T3 sequence with S50N, L84F, G94A, V137A, I138V
# T9: cynomolgus IL-11 (cynomolgus, UniProt P20808 22-199)
# T9 sequence: T5 sequence
# B1: TPP-20489 (bispecific antibody, IgG1)
# chain 1: not shown
# chain 2: EVQLLESGGGLVQPGGSLRLSCAASGFTFSHYDMNWLRQAPGKGLEWVGVISYDGSNKFYADFVKGRFTISRDNSKNTLYLQMNSLRAEDTAVYYCARTPGSHFDYWGQGTLVTVSSGGGGSGGGGSGGGGSQSVLTQPPSASGTPGQRVTISCSGSSSNIGNNAVNWYQQLPGTAPKLLIYYDDLLPSGVPDRFSGSKSGTSASLAISGLRSEDEADYYCSAWDDSLNGVVFGGGTKLTVLGGGGSGGGGSGGGGSGVECPPCPAPELLGGPSVFLFPPKPKDTLMISRTPEVTCVVVDVSHEDPEVKFNWYVDGVEVHNAKTKPREEQYNSTYRVVSVLTVLHQDWLNGKEYKCKVSNKALPAPIEKTISKAKGQPREPQVCTLPPSRDELTKNQVSLSCAVKGFYPSDIAVEWESNGQPENNYKTTPPVLDSDGSFFLVSKLTVDKSRWQQGNVFSCSVMHEALHNHYTQKSLSLSPG
# notes: scFv-kih-hIgG1
# B2: TPP-23552 (antibody, human IgG1, kappa)
# heavy: not shown
# light: DIVLTQSPASLALSPGERATLSCRASKSVSTSGYSYIHWYQQKPGQPPRLLIYLASNLDSGVPARFSGSGSGTDFTLNIHPLEEEDFATYYCQHSRDLPPTFGQGTKLEIKRTVAAPSVFIFPPSDEQLKSGTASVVCLLNNFYPREAKVQWKVDNALQSGNSQESVTEQDSKDSTYSLSSTLTLSKADYEKHKVYACEVTHQGLSSPVTKSFNRGEC
# notes: hIgG1, Kappa; also called BSN 3C6 (WO2019238882)
# Assays:
# human IL2Ra = target: T1, human IL2Ra; assay: ELISA on coated IL2Ra, signal ratio to isotype control at 1E-07 M antibody
# Protocol: IL2RA (Peprotech, Germany, #200-02RC) was coated at 1 or 0 μg/ml (buffer only control) in 30 μl coating buffer (Candor, #113500) per well on a 384 well microtiter plate (Maxisorb, Nunc, #460518) over night at 4-8° C. After two washes with 50 μl/well washing buffer (PBS+0.05% Tween, pH 7.4), the plates were incubated for two hours at room temperature with 50 μl/well SmartBlock (Candor, #113500). After blocking, the plates were washed three times with washing buffer. Then, a dilution series of the respective antibody (1E-7 [M] down to 2E-13 [M]) in PBS+0.05% Tween, 10% SmartBlock were added in 30 μl to the microtiter plate and incubated for 90 min at room temperature. After three additional washes, 30 μl anti mouse IgG HRP-conjugated antibody (Biotechne, HAF007), diluted 1:1000 in PBS+0.05% Tween (pH 7.4), were added per well and incubated for one hour. After three additional washes, a mixture of Amplex red (Invitrogen, #12222, 10 mM stock solution in DMSO) 1:1000 diluted in PBS and H2O2 (30%, Merck, #107209)) diluted 1:10000 in PBS were added as substrate with 30 μl per well and incubated for 20 min in the dark. Relative fluorescence was measured with a microtiter plate reader at 535/590 nm.
# Bispecific antibodies were subjected to the experimental assay procedure described in Example 20. Ratios of the signals generated at an antibody concentration of 1E-07 [M] by the respective bispecific antibody versus those of an isotype control antibody were calculated and are shown in Table E29. The bispecific antibodies show no binding to IL-2 Ra.
# human IL-11 [1] = target: T2, human IL-11; assay: SPR (Biacore), 25 C, antibody captured via anti-Fc, IL-11 as analyte
# Protocol: (§1) To assess the binding kinetics and affinity of anti-IL-11 bispecific antibodies as well as their species cross-reactivity profile, binding assays were conducted using surface plasmon resonance (SPR). […] Antibodies were captured either via anti-human Fc IgGs (“Human antibody capture kit”, Order No. BR100839, Cytiva) or via anti-mouse Fc IgGs (“Mouse antibody capture kit, Order No. BR100383, Cytiva) covalently amine coupled to a Series S CM5 sensor chip (Cytiva) depending on the isotype. The amine coupling was carried out according to the manufacturer's instructions using 1-ethyl-3-(3-dimethylaminopropyl) carbodiimide hydrochloride (EDC), N-hydroxysuccinimide (NHS) and ethanolamine HCl, pH 8.5 (“Amine Coupling Kit” BR-1000-50, Cytiva.). Human, mouse, cynomolgus or rat IL-11 was used as analyte at several dilutions within the concentration range from 0.05-200 nM. For binding assays with only one concentration 200 nM IL-11 was used. The sensor surface was regenerated with glycine pH 1.7 after each antigen injection. Obtained sensorgrams were double referenced (subtraction of reference flow cell signal and buffer injection) and were fitted to a 1:1 Langmuir binding model to derive kinetic data using the Biacore T200 Evaluation software or the Biacore Insight software.
# (§2) If no value is reported, there was either no binding or very low binding and multiphasic binding behavior.
# murine IL-11 [2] = target: T3, murine IL-11; assay: as above
# Protocol: as §1, §2
# rat IL-11 [3] = target: T4, rat IL-11; assay: as above
# Protocol: as §1, §2
# cynomolgus IL-11 [4] = target: T5, cynomolgus IL-11; assay: as above
# Protocol: as §1, §2
# human IL-11 [5] = target: T2, human IL-11; assay: Tri-complex ELISA, hIL-11 + mIL-11Ra-Fc + hgp130-Fc, inhibition of complex formation
# Protocol: (§3) In the Tri-complex ELISA format IL-11 antibodies are tested for their ability to inhibit the formation of a complex consisting of murine or human gp130-Fc fusion protein, with murine or human IL-11, and a murine IL11RA-Fc fusion protein. The assay format was adapted according to FIG. 18 (a, b), depending on whether murine or human IL-11 IgG antibodies were tested.
# (§4) Bispecific antibodies were subjected to the experimental assay procedure described in Example 19 and IC50 [M], respectively efficacy (%) were calculated accordingly.
# murine IL-11 [6] = target: T3, murine IL-11; assay: Tri-complex ELISA, mIL-11 + mIL-11Ra-Fc + mgp130-Fc, inhibition of complex formation
# Protocol: as §3, §4
# murine IL-11 [7] = target: T3, murine IL-11; assay: Di-complex ELISA, murine IL11RA-Fc binding to immobilized mIL-11, competition
# Protocol: In the Di-complex ELISA format anti IL-11 antibodies are tested for the ability to interfere with the formation of complexes consisting of immobilized murine IL-11 (Invigate, e.g., lot #C210819-09) or human IL-11 (Invigate, e.g., lot #C121021-19), and murine IL11RA-Fc fusion proteins or canine IL11RA-human-Fc fusion protein (FIG. 17a, b).
# Bispecific antibodies were subjected to the experimental assay procedure described in Example 18 and IC50 [M], respectively efficacy (%) were calculated accordingly.
# human IL-11 [8] = target: T2, human IL-11; assay: cell-based or functional assay
# murine IL-11 [9] = target: T3, murine IL-11; assay: cell-based or functional assay
# human IL-11 [10] = target: T6, human IL-11; assay: Di-complex ELISA, competitor murine IL11RA-Fc on coated IL-11
# murine IL-11 [11] = target: T7, murine IL-11; assay: as above
# human IL-11 [12] = target: T6, human IL-11; assay: cell-based or functional assay; remark: listed apart in the source
# rat IL-11 [13] = target: T8, rat IL-11; assay: cell-based or functional assay
# murine IL-11 [14] = target: T7, murine IL-11; assay: cell-based or functional assay; remark: listed apart in the source
# cynomolgus IL-11 [15] = target: T9, cynomolgus IL-11; assay: cell-based or functional assay
# human IL-11 [16] = target: T6, human IL-11; assay: SPR 37 C, antibody captured, IL-11 as analyte
# rat IL-11 [17] = target: T8, rat IL-11; assay: SPR 37 C, antibody captured, IL-11 as analyte
# murine IL-11 [18] = target: T7, murine IL-11; assay: SPR 37 C, antibody captured, IL-11 as analyte
# cynomolgus IL-11 [19] = target: T9, cynomolgus IL-11; assay: SPR 37 C, antibody captured, IL-11 as analyte
binder,measurement,setting,value
B1,Ratio IL-2Ra Binding Signal Antibody/Isotype Control,human IL2Ra,852 ratio
same,Kd,human IL-11 [1],0.011 nM
same,Kd,murine IL-11 [2],5 pM
same,Kd,rat IL-11 [3],2.6 pM
same,Kd,cynomolgus IL-11 [4],0.025 nM
same,Efficacy (%),human IL-11 [5],105%
same,IC50,human IL-11 [5],6.28 nM
same,Efficacy (%),murine IL-11 [6],94%
same,IC50,murine IL-11 [6],1.81 nM
same,IC50,murine IL-11 [7],35 nM
same,"Efficacy (%), Stat3 reporter gene assay",human IL-11 [8],102%
same,"IC50, Stat3 reporter gene assay",human IL-11 [8],310 pM
same,"Efficacy (%), Stat3 reporter gene assay",murine IL-11 [9],93.9%
same,"IC50, Stat3 reporter gene assay",murine IL-11 [9],1 nM
B2,Efficacy (%),human IL-11 [10],97.2%
same,IC50,human IL-11 [10],2.9 nM
same,Efficacy (%),murine IL-11 [11],98.4%
same,IC50,murine IL-11 [11],3.3 nM
same,RGA Efficacy (%),human IL-11 [12],76.7%
same,RGA IC50,human IL-11 [12],3.7 nM
same,RGA Efficacy (%),rat IL-11 [13],81.3%
same,RGA IC50,rat IL-11 [13],8.8 nM
same,RGA Efficacy (%),murine IL-11 [14],90.9%
same,RGA IC50,murine IL-11 [14],8.1 nM
same,RGA Efficacy (%),cynomolgus IL-11 [15],52.4%
same,Kd,human IL-11 [16],1.4 nM
same,Kd,rat IL-11 [17],3.2 nM
same,Kd,murine IL-11 [18],1.8 nM
same,binding result,cynomolgus IL-11 [19],no binding (tested: IL-11 up to 200 nM)
